Earlier results on 13 molecules are cited in US20200069786A1, “COMPOSITION AND PROCESS FOR PREPARING VACCINE” (TREOS BIO ZRT., priority 2018, published 2020).

Changes are numbered by the printed parent chain. Like-named read-outs stand apart in the source and are kept apart here.

This series relates to TSA. Particulars: for TSA Expression Rate (ER): BREAST.
The mark [1] stands for this setting: TSA expression rate in PROSTATE cancer.
Where [2] appears, read: TSA expression rate in MELANOMA

B1: NR6A1 (protein, UniProt Q15406 1-480, looked up)
Nuclear receptor subfamily 6 …: MERDEPPPSGGGGGGGSAGFLEPPAALPPPPRNGFCQDELAELDPGTISVSDDRAEQRTCLICGDRATGLHYGIISCEGCKGFFKRSICNKRVYRCSRDKNCVMSRKQRNRCQYCRLLKCLQMGMNRKAIREDGMPGGRNKSIGPVQISEEEIERIMSGQEFEEEANHWSNHGDSDHSSPGNRASESNQPSPGSTLSSSRSVELNGFMAFREQYMGMSVPPHYQYIPHLFSYSGHSPLLPQQARSLDPQSYSLIHQLLSAEDLEPLGTPMLIEDGYAVTQAELFALLCRLADELLFRQIAWIKKLPFFCELSIKDYTCLLSSTWQELILLSSLTVYSKQIFGELADVTAKYSPSDEELHRFSDEGMEVIERLIYLYHKFHQLKVSNEEYACMKAINFLNQDIRGLTSASQLEQLNKRYWYICQDFTEYKYTHQPNRFPDLMMCLPEIRYIAGKMVNVPLEQLPLLFKVVLHSCKTSVGKE
With B1, the “Expression Rate (ER) %” value under setting [1] is listed as 25%.

B2: PRSS55 (protein, UniProt Q6UWB4 19-352, looked up)
Serine protease 55: GPRTPLPEAGVAILGRARGAHRPQPPHPPSPVSECGDRSIFEGRTRYSRITGGMEAEVGEFPWQVSIQARSEPFCGGSILNKWWILTAAHCLYSEELFPEELSVVLGTNDLTSPSMEIKEVASIILHKDFKRANMDNDIALLLLASPIKLDDLKVPICLPTQPGPATWRECWVAGWGQTNAADKNSVKTDLMKAPMVIMDWEECSKMFPKLTKNMLCAGYKNESYDACKGDSGGPLVCTPEPGEKWYQVGIISWGKSCGEKNTPGIYTSLVNYNLWIEKVTQLEGRPFNAEKRRTSVKQKPMGSPVSGVPEPGSPRSWLLLCPLSHVLFRAILY
As for B2, the “Expression Rate (ER) %” value under setting [1] is 1%.

B3: ODF1 (protein, UniProt Q14990 1-250, looked up)
Outer dense fiber protein 1: MAALSCLLDSVRRDIKKVDRELRQLRCIDEFSTRCLCDLYMHPYCCCDLHPYPYCLCYSKRSRSCGLCDLYPCCLCDYKLYCLRPSLRSLERKAIRAIEDEKRELAKLRRTTNRILASSCCSSNILGSVNVCGFEPDQVKVRVKDGKVCVSAERENRYDCLGSKKYSYMNICKEFSLPPCVDEKDVTYSYGLGSCVKIESPCYPCTSPCSPCSPCSPCNPCSPCNPCSPYDPCNPCYPCGSRFSCRKMIL
B3: under setting [1], the “Expression Rate (ER) %” value is 10%.

B4: PAGE5 (protein, UniProt Q96GU1 1-130, looked up)
P antigen family member 5: MQAPWAGNRGWAGTREEVRDMSEHVTRSQSSERGNDQESSQPVGPVIVQQPTEEKRQEEEPPTDNQGIAPSGEIKNEGAPAVQGTDVEAFQQELALLKIEDAPGDGPDVREGTLPTFDPTKVLEAGEGQL
With B4, the “Expression Rate (ER) %” value is, setting by setting: (TSA expression rate in CRC) 11%; (TSA expression rate in Kidney) 44%; under setting [2], 22%.

B5: TSP50 (protein, UniProt Q9UI38 40-385, looked up)
Probable threonine protease …: AGEAPGALSTADPADQSVQCVPKATCPSSRPRLLWQTPTTQTLPSTTMETQFPVSEGKVDPYRSCGFSYEQDPTLRDPEAVARRWPWMVSVRANGTHICAGTIIASQWVLTVAHCLIWRDVIYSVRVGSPWIDQMTQTASDVPVLQVIMHSRYRAQRFWSWVGQANDIGLLKLKQELKYSNYVRPICLPGTDYVLKDHSRCTVTGWGLSKADGMWPQFRTIQEKEVIILNNKECDNFYHNFTKIPTLVQIIKSQMMCAEDTHREKFCYELTGEPLVCSMEGTWYLVGLVSWGAGCQKSEAPPIYLQVSSYQHWIWDCLNGQALALPAPSRTLLLALPLPLSLLAAL
For B5, the “Expression Rate (ER) %” value runs as follows: (TSA expression rate in CRC) 89%; (TSA expression rate in GASTRIC cancer) 57%.

B6: BAGE-2 (protein, UniProt Q86Y30 18-109, looked up)
B melanoma antigen 2: RLMKEESPVVSWRLEPEDGTALDVHFVSTLEPLSNAVKRNVPRCIIILVLQEPTAFRISVTSSCFVQNTLTKLLKDRRKMQTVQCATARETS
For the molecule B6, the “Expression Rate (ER) %” value under setting [2] is recorded as 23%.

B7: BAGE-3 (protein, UniProt Q86Y29 18-109, looked up)
B melanoma antigen 3: B6 B melanoma antigen 2 with A55P, R89Q
For B7, under setting [2], the “Expression Rate (ER) %” value was 14%.

B8: ODF3 (protein, UniProt Q96PU9 1-254, looked up)
Ciliary microtubule …: MTEEVWMGTWRPHRPRGPIMALYSSPGPKYLIPPTTGFMKHTPTKLRAPAYSFRGAPMLLAENCSPGPRYNVNPKILRTGKDLGPAYSILGRYQTKTMLTPGPGDYFPEKSTKYVFDSAPSHSISARTKAFRVDSTPGPAAYMLPMVMGPNTVGKASQPSFSIKGRSKLGGFSDDLHKTPGPAAYRQTDVRVTKFKAPQYTMAARVEPPGDKTLKPGPGAHSPEKVTLTKPCAPVVTFGIKHSDYMTPLLVDVE
Turning to B8, the “TSA Expression Rate (ER)” value is recorded as 0%. Besides, under setting [1], the “Expression Rate (ER) %” value is 0%.

B9: SPATA19 (protein, UniProt Q7Z5L4 25-167, looked up)
Spermatogenesis-associated …: SSDIDVVESEAVSVLHHWLKKTEEEASRGIKEKLSINHPSQGVREKMSTDSPPTHGQDIHVTRDVVKHHLSKSDLLANQSQEVLEERTRIQFIRWSHTRIFQVPSEMTEDIMRDRIEQVRRSISRLTDVSAQDFSMRPSSSDC
On to B9, for which the “Expression Rate (ER) %” value under setting [1] was 88%.

B10: PAGE4 (protein, UniProt O60829 1-102, looked up)
P antigen family member 4: MSARVRSRSRGRGDGQEAPDVVAFVAPGESQQEEPPTDNQDIEPGQEREGTPPIEERKVEGDCQEMDLEKTRSERGDGSDVKEKTPPNPKHAKTKEAGDGQP
B10: the “Expression Rate (ER) %” value is, setting by setting: (TSA expression rate in CRC) 33%; under setting [1], 100%.

B11: MAGE-A5 (protein, UniProt P43359 1-124, looked up)
Putative melanoma-associated …: MSLEQKSQHCKPEEGLDTQEEALGLVGVQAATTEEQEAVSSSSPLVPGTLGEVPAAGSPGPLKSPQGASAIPTAIDFTLWRQSIKGSSNQEEEGPSTSPDPESVFRAALSKKVADLIHFLLLKY
As for B11, the “TSA Expression Rate (ER)” value is given as 9%. The “Expression Rate (ER) %” value (TSA expression rate in CRC) is recorded as 7%. The “Expression Rate (ER) %” value under setting [2] is 25%.

B12: ODF2 (protein, UniProt Q5BJF6 1-829, looked up)
Outer dense fiber protein 2: MSASSSGGSPRFPSCGKNGVTSLTQKKVLRAPCGAPSVTVTKSHKRGMKGDTVNVRRSVRVKTKVPWMPPGKSSARPVGCKWENPPHCLEITPPSSEKLVSVMRLSDLSTEDDDSGHCKMNRYDKKIDSLMNAVGCLKSEVKMQKGERQMAKRFLEERKEELEEVAHELAETEHENTVLRHNIERMKEEKDFTILQKKHLQQEKECLMSKLVEAEMDGAAAAKQVMALKDTIGKLKTEKQMTCTDINTLTRQKELLLQKLSTFEETNRTLRDLLREQHCKEDSERLMEQQGALLKRLAEADSEKARLLLLLQDKDKEVEELLQEIQCEKAQAKTASELSKSMESMRGHLQAQLRSKEAENSRLCMQIKNLERSGNQHKAEVEAIMEQLKELKQKGDRDKESLKKAIRAQKERAEKSEEYAEQLHVQLADKDLYVAEALSTLESWRSRYNQVVKEKGDLELEIIVLNDRVTDLVNQQQTLEEKMREDRDSLVERLHRQTAEYSAFKLENERLKASFAPMEDKLNQAHLEVQQLKASVKNYEGMIDNYKSQVMKTRLEADEVAAQLERCDKENKILKDEMNKEIEAARRQFQSQLADLQQLPDILKITEAKLAECQDQLQGYERKNIDLTAIISDLRSRIEHQGDKLEMAREKHQASQKENKQLSLKVDELERKLEATSAQNIEFLQVIAKREEAIHQSQLRLEEKTRECGTLARQLESAIEDARRQVEQTKEHALSKERAAQNKILDLETQLSRTKTELSQLRRSRDDADRRYQSRLQDLKDRLEQSESTNRSMQNYVQFLKSSYANVFGDGPYSTFLTSSPIRSRSPPA
With B12, under setting [1], the “Expression Rate (ER) %” value is on record as 10%.

B13: XAGE-2 (protein, UniProt Q96GT9 1-111, looked up)
X antigen family member 2: MSWRGRSTYRPRPRRSLQPPELIGAMLEPTDEEPKEEKPPTKSRNPTPDQKREDDQGAAEIQVPDLEADLQELCQTKTGDGCEGGTDVKGKILPKAEHFKMPEAGEGKSQV
On to B13, for which the “Expression Rate (ER) %” value reads like this: (TSA expression rate in HEAD and NECK) 6%; under setting [2], 14%; (TSA expression rate in PEDIATRIC) 14%.
